Measurements as given in patent US20170260272A1 (Novartis, published 2017).
Where a chain is given by its changes, count along the chain named.

B1: MOR021434 (antibody, V domains shown)
VH: QVQLVQSGAEVKKPGSSVKVSCKASGGTFSDYAISWVRQAPGQGLEWMGGIVPILGAANYAQKFQGRVTITADESTSTAYMELSSLRSEDTAVYYCARDSSTSYYYYFDYWGQGTLVTVSS
VL: DIQMTQSPSSLSASVGDRVTITCRASQDINSWLAWYQQKPGKAPKLLIYQASNLQSGVPSRFSGSGSGTDFTLTISSLQPEDFATYYCQQIDHTPFTFGQGTKVEIKR
notes: IgG (human IgG1f LALA); parent MOR20159 with the printed HCDR2 stretch exchanged
B2: MOR021441 (antibody, V domains shown)
VH: B1 VH with L55V, A57T
VL: B1 VL with I91M, D92K, H93T, T94F, F96I
notes: IgG (human IgG1f LALA); parent MOR20159 with the printed LCDR3 stretch exchanged
B3: MOR021437 (antibody, V domains shown)
VH: B1 VH with L55V, A57T
VL: B1 VL with I91M, D92K, H93I, T94S, P95L, F96I
notes: as for B2
B4: MOR021439 (antibody, V domains shown)
VH: B1 VH with L55V, A57T
VL: B1 VL with I91M, D92H, H93R, T94F, F96M
notes: as for B2
B5: MOR021436 (antibody, V domains shown)
VH: B1 VH with L55V, A57T
VL: B1 VL with I91M, D92Q, H93T, T94S, P95L, F96I
notes: as for B2
B6: MOR021442 (antibody, V domains shown)
VH: B1 VH with L55V, A57T
VL: B1 VL with I91M, D92H, H93R, T94L, F96V
notes: as for B2
B7: MOR021440 (antibody, V domains shown)
VH: B1 VH with L55V, A57T
VL: B1 VL with I91M, D92Q, H93E, T94S, P95L, F96L
notes: as for B2
B8: MOR021438 (antibody, V domains shown)
VH: B1 VH with L55V, A57T
VL: B1 VL with I91M, D92H, H93R, T94H, F96I
notes: as for B2
B9: MOR021443 (antibody, V domains shown)
VH: QVQLVQSGAEVKKPGESLKISCKGSGYSFTNYWIAWVRQMPGKGLEWMGRIFPGKSETSYSPSFQGQVTISADKSISTAYLQWSSLKASDTAMYYCARGKRGATHPTQYEGWEVYGFDPWGQGTLVTVSS
VL: DIELTQPPSVSVSPGQTASITCSGDALGGKYASWYQQKPGQAPVLVIYDDNKRPSGIPERFSGSNSGNTATLTISGTQAEDEADYYCQSWAFYSGVFGGGTKLTVLG
notes: IgG (human IgG1f LALA); parent MOR20133 with the printed HCDR2 stretch exchanged
B10: MOR021444 (antibody, V domains shown)
VH: B9 VH with F52E, G54L, K55S, E57T, S59E
VL: B9 VL
notes: as for B9
B11: MOR021445 (antibody, V domains shown)
VH: B9 VH with R50A, F52R, G54E, K55W, S59K
VL: B9 VL
notes: as for B9
B12: MOR021553 (antibody, V domains shown)
VH: QVQLLESGGGLVQSGGSLRLSCAASGFTFRSGAAMHWVRQAPGKGLEWVSSIEYFGSATLYADSVKGRFTISRDNSKNTLYLQMNSLRAEDTAVYYCARNFKYAMDYWGQGTLVTVSS
VL: DIALTQPASVSGSPGQSITISCTGTSSDVGSINYVSWYQQHPGKAPKMIYAVSYRPSGVSNRFSGSKSGNTASLTISGLQAEDEADYYCQVWDWRSDSRVFGGGTKLTVLG
notes: IgG (human IgG1f LALA); parent MOR20148 with the printed HCDR2 stretch exchanged
B13: MOR021458 (antibody, V domains shown)
VH: QVQLLESGGGLVQPGGSLRLSCAASGFTFSDYALHWVRQAPGKGLEWVSSISYVGGFIYYADSVKGRFTISRDNSKNTLYLQMNSLRAEDTAVYYCARSPGLTSYHDSWGQGTLVTVSS
VL: DIVLTQPPSVSGAPGQRVTISCSGSSSNIGSNYVSWYQQLPGTAPKLLIHSNSHRPSGVPDRFSGSKSGTSASLAITGLQAEDEADYYCQSWDYESERVVFGGGTKLTVLG
notes: IgG (human IgG1f LALA); parent MOR20144 with the printed HCDR2 stretch exchanged
B14: MOR021459 (antibody, V domains shown)
VH: B13 VH with S50V, I58K, Y59F
VL: B13 VL
notes: as for B13
B15: MOR021466 (antibody, V domains shown)
VH: B13 VH with S50V, V54M, I58K, Y59F
VL: B13 VL
notes: as for B13
B16: MOR021461 (antibody, V domains shown)
VH: B13 VH with S50V, V54A, I58T
VL: B13 VL
notes: as for B13
B17: MOR021470 (antibody, V domains shown)
VH: B13 VH with S50V, V54A, G56A, I58T
VL: B13 VL
notes: as for B13
B18: MOR021462 (antibody, V domains shown)
VH: B13 VH with S50G, V54Q, Y59F
VL: B13 VL
notes: as for B13
B19: MOR021465 (antibody, V domains shown)
VH: B13 VH with S50V, V54Q, G56A
VL: B13 VL
notes: as for B13
B20: MOR021463 (antibody, V domains shown)
VH: B13 VH with S50V, V54M, I58K
VL: B13 VL
notes: as for B13
B21: MOR021467 (antibody, V domains shown)
VH: B13 VH with S50V, V54Q, I58T, Y59F
VL: B13 VL
notes: as for B13
B22: MOR021469 (antibody, V domains shown)
VH: B13 VH with S50A, V54Q, Y59F
VL: B13 VL
notes: as for B13
B23: MOR021454 (antibody, V domains shown)
VH: QVQLVESGGGLVKPGGSLRLSCAASGFTFSSYALSWVRQAPGKGLEWVGRIRHYKWGGTTEYAAPVKGRFTISRDDSKNTLYLQMNSLKTEDTAVYYCARDFWADHYYYFDYWGQGTLVTVSS
VL: DIALTQPASVSGSPGQSITISCTGTSSDVGYINYVNWYQQHPGKAPKLMIYEVSNRPSGVSNRFSGSKSGNTASLTISGLQAEDEADYYCASWDWYDNVVFGGGTKLTVLG
notes: IgG (human IgG1f LALA); parent MOR20151 with the printed HCDR2 stretch exchanged
B24: MOR021448 (antibody, V domains shown)
VH: QVQLVQSGAEVKKPGSSVKVSCKASGGTFSDYAISWVRQAPGQGLEWMGRVIRPYYGWTEYAQKFQGRVTITADESTSTAYMELSSLRSEDTAVYYCAREPSPLYGPYSDYVMDPWGQGTLVTVSS
VL: B23 VL with I32F, Y34F, N36S, E52D, W93Y, D94G, Y96D, D97S, N98S, V99W
notes: IgG (human IgG1f LALA); parent MOR20052 with the printed HCDR2 stretch exchanged
B25: MOR021449 (antibody, V domains shown)
VH: QVQLVQSGAEVKKPGSSVKVSCKASGGTFSDYAISWVRQAPGQGLEWMGGIQPGFAGAWYAQKFQGRVTITADESTSTAYMELSSLRSEDTAVYYCAREPSPLYGPYSDYVMDPWGQGTLVTVSS
VL: B23 VL with I32F, Y34F, N36S, E52D, W93Y, D94G, Y96D, D97S, N98S, V99W
notes: as for B24
B26: MOR021457 (antibody, V domains shown)
VH: B23 VH with I51T, H53M, Y54W, K55T, W56V, G58Y, E61H, P65S
VL: B23 VL
notes: as for B23
B27: MOR021456 (antibody, V domains shown)
VH: B23 VH with H53Y, Y54W, K55P, W56D, G58Y, E61H, P65S
VL: B23 VL
notes: as for B23
B28: MOR021451 (antibody, V domains shown)
VH: QVQLVQSGAEVKKPGSSVKVSCKASGGTFSSYAISWVRQAPGQGLEWMGRIVPGFVYTSYAQKFQGRVTITADESTSTAYMELSSLRSEDTAVYYCARDPLYRSDYYYHWFDFWGQGTLVTVSS
VL: DIALTQPASVSGSPGQSITISCTGTSSDVGNFNYVSWYQQHPGKAPKLMIYGVNNRPSGVSNRFSGSKSGNTASLTISGLQAEDEADYYCAAYGWALDEVVFGGGTKLTVLG
notes: IgG (human IgG1f LALA); parent MOR20152 with the printed HCDR2 stretch exchanged
B29: MOR021455 (antibody, V domains shown)
VH: QVQLVQSGAEVKKPGSSVKVSCKASGGTFSSYAISWVRQAPGQGLEWMGRIIPQWAGTPEYAQKFQGRVTITADESTSTAYMELSSLRSEDTAVYYCARDPLYRSDYYYHWFDFWGQGTLVTVSS
VL: B28 VL
notes: as for B28

target: APP-Avi-soluble human LOX-1(61-273) (human, UniProt P78380 61-273); assay: SET, IgG vs soluble human LOX-1
Method: Affinity determination for anti-LOX-1 IgGs using Solution Equilibrium Titration (SET) was basically performed as described in the literature (Friguet et al., 1985 J Immunol Methods 77: 305-319). The assays were performed in a 96-well polypropylene plate (Thermo Scientific, Catalog no. AB-1127) using a constant concentration of LOX-1 antibody mixed with different concentrations of non-biotinylated human or cynomolgus monkey LOX-1 protein and incubated at 22° C. for 14 hours with constant shaking (300 rpm).
On a pre-blocked MSD plate (Meso Scale Discovery, catalog no. L21SA) biotinylated human or cynomolgus monkey soluble LOX-1 protein was immobilized and washed afterwards. The equilibrium binding reactions were then applied to the MSD plate with immobilized LOX-1 and incubated for 30 min. The unbound material was removed by washing the plate, and the captured antibody was detected by adding Sulfo-tagged goat anti-human IgG (Meso Scale Discovery, catalog no. R3AJ-1). After incubation and washing 1×MSD read buffer T(Meso Scale Discovery, catalog no. R92TC-2) was added and the plate was developed using a Sector Imager 6000 (Meso Scale Discovery). The data were transferred to Excel for analysis and plotted using GraphPad Prism v5. The KD values were determined by fitting the data to the following equation: […]

Compared with B1, B2 is 2.3-fold lower in Kd: 7 pM for the first, 3 pM for the second. The second binds more tightly here.

B3 and B4 are within 1.5-fold of each other in Kd: 4 pM for the first, 3 pM for the second.

B5 and B6 are the same in Kd: 4 pM for the first, 4 pM for the second.

Compared with B7, B8 is 3-fold lower in Kd: 6 pM for the first, 2 pM for the second. The second binds more tightly here.

Going from B9 to B10, the Kd falls from 75 pM to 35 pM (2.1-fold).

Compared with B11, B12 is 5-fold lower in Kd: 30 pM for the first, 6 pM for the second. The second binds more tightly here.

B13 and B14 are within 1.5-fold of each other in Kd: 0.6 pM for the first, 0.4 pM for the second.

Compared with B15, B16 is 3-fold lower in Kd: 0.6 pM for the first, 0.2 pM for the second. The second binds more tightly here.

First: B17
Second: B18
The Kd of the first is 1.8-fold lower: 0.5 pM for the first, 0.9 pM for the second.

B19 and B20 are within 1.5-fold of each other in Kd: 1.6 pM for the first, 1.3 pM for the second.

B21 and B22 are within 1.5-fold of each other in Kd: 0.9 pM for the first, 1 pM for the second.

First: B23
Second: B24
The Kd of the first is 2.3-fold higher: 0.7 pM for the first, 0.3 pM for the second.

Compared with B25, B26 is 3.3-fold higher in Kd: 0.3 pM for the first, 1 pM for the second. The first binds more tightly here.

First: B27
Second: B28
The Kd of the first is 20-fold higher: 2 pM for the first, 0.1 pM for the second. The second binds more tightly here.

With B29 the Kd was 0.3 pM.
